Experimental data from the supplement of paper PMC10567573.

B1: CD69 (parent)
chain: FVAENSSLHPESGQENDATSPHFS

Variants of: B1
Experiment: protein stability index of a GFP-peptide fusion (GPS, HEK-293T) (PSI 1-6); higher = more stable
Conditions: c terminus: a fixed tail appended
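Also: lentivirally expressed fusions sorted by FACS into six bins by GFP to DsRed ratio, PSI derived from sequencing read proportions per bin multiplied by bin number.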

Protein stability index: each site, then its substitutions
Q14: M 3.28, P 2.66, W 2.48, H 3.47, L 2.87, R 2.76, I 3.04, N 2.87, K 3.13, S 2.64, D 3.93, A 3.06, F 2.84, C 2.95, V 3.2, G 2.58, Y 2.4, T 2.99, E 3.51
S7: W 3.07, Y 1.93
S12: Q 2.88, E 3.83, L 2.46, I 2.86, M 2.87, F 2.39, H 2.64, W 1.83, T 3.14, D 3.25, V 3.42, A 2.99, K 2.66, Y 2.39, P 3.39, C 2.73, R 2.38, G 2.9, N 3.05
G13: C 2.89, E 3.41, I 2.61, T 3.59, Q 3.09, V 3.21, A 2.69, M 3.38, P 3.32, Y 3.06, W 1.97, N 3.33, R 2.49, S 3.31, H 2.46, F 2.69, K 3.24, D 3.4, L 2.49
E11: V 2.38, Y 2.22, L 1.6, C 1.96, D 3.22, S 2.52, P 2.55, R 2.12, F 1.82, W 2.05, N 3.21, K 2.35, G 2.46, M 2.36, Q 2.48, I 2.39, T 2.84, H 2.36, A 2.51
N16: F 2.81, M 2.56, P 2.6, E 3.05, C 2.73, Q 3.37, G 2.88, H 3, L 2.81, K 3.29, I 3.01, D 3.61, A 2.51
P10: Y 3.15, N 3.63, F 2.48, H 3.61, K 2.98, M 2.46, I 3.23, R 2.56, L 2.9, E 3.54, S 2.52, Q 3.45, G 3.29, A 3.06, C 2.84, W 2.43, D 3.32, T 3.13, V 3.22
E15: W 1.95, K 2.76, N 2.6, C 2.57, V 2.67, D 3.06, R 2.19, H 2.76, I 2.51, T 2.78, F 1.91, A 2.88, P 2.32, S 2.11, Q 3.05, Y 2.08, M 2.83, G 2.59, L 2.12
L8: Q 3.62, E 3.86, W 1.72, C 2.8, A 3.41, T 3.64, K 2.68, Y 2.28, S 3.75, P 3.41, R 2.49, N 3.65, M 3.06, H 3.04, D 3.62, V 3.01, F 2.4, I 3.24, G 3.78
H9: V 3.03, Q 3.5, L 2.96, T 3.7, G 3.4, N 2.8, M 3.08, K 3.62, D 3.8, S 3.32, A 3.38, E 4.49, F 2.95, Y 2.88, C 3.15, I 2.9, R 2.79, P 3.6, W 1.61
